Results from patent US11504441B2, “Radiolabeled compounds targeting the prostate-specific membrane antigen” (PROVINCIAL HEALTH SERVICES AUTHORITY, priority 2019, dated 2022).

Assay: in vivo
Parameters: species or system mice
Settings: male, NODSCID 1L2RγKO, mouse, iv, total radioactivity

`COc1ccc(CCCC(=O)NCC(=O)N[C@@H](CCCCNC(=O)CN2CCN(CC(=O)O)CCN(CC(=O)O)CCN(CC(=O)O)CC2)C(=O)NC[C@H]2CC[C@H](C(=O)N[C@@H](Cc3c4ccccc4cc4ccccc34)C(=O)NCCCC[C@H](NC(=O)N[C@@H](CSCC(=O)O)C(=O)O)C(=O)O)CC2)cc1` [177Lu-HTK04048, metal not drawn] gave a tissue uptake at 1 h (Adrenal glands uptake) of 3.95 ± 0.34 %ID/g, a tissue uptake at 4 h (Adrenal glands uptake) of 2.1 ± 0.22 %ID/g and a tissue uptake at 24 h (Adrenal glands uptake) of 0.49 ± 0.04 %ID/g. It also gave a tissue uptake at 72 h (Adrenal glands uptake) of 0.34 ± 0.03 %ID/g, a tissue uptake at 120 h (Adrenal glands uptake) of 0.37 ± 0.09 %ID/g and a tissue uptake at 1 h (Blood uptake) of 17.7 ± 2.05 %ID/g. It also gave a tissue uptake at 4 h (Blood uptake) of 12.3 ± 1.56 %ID/g, a tissue uptake at 24 h (Blood uptake) of 0.68 ± 0.11 %ID/g and a tissue uptake at 72 h (Blood uptake) of 0.12 ± 0.01 %ID/g. For the same compound, the tissue uptake at 120 h (Blood uptake) was 0.05 ± 0.02 %ID/g, the tissue uptake at 1 h (Bone uptake) was 1.04 ± 0.2 %ID/g and the tissue uptake at 4 h (Bone uptake) was 0.74 ± 0.09 %ID/g. For the same compound, the tissue uptake at 24 h (Bone uptake) was 0.11 ± 0.02 %ID/g, the tissue uptake at 72 h (Bone uptake) was 0.07 ± 0.01 %ID/g and the tissue uptake at 120 h (Bone uptake) was 0.07 ± 0.01 %ID/g. The tissue uptake at 1 h (Brain uptake) was 0.31 ± 0.02 %ID/g, the tissue uptake at 4 h (Brain uptake) was 0.18 ± 0.02 %ID/g and the tissue uptake at 24 h (Brain uptake) was 0.03 %ID/g. It also gave a tissue uptake at 72 h (Brain uptake) of 0.01 %ID/g, a tissue uptake at 120 h (Brain uptake) of 0.01 %ID/g and a tissue uptake at 1 h (Fat uptake) of 1.32 ± 0.17 %ID/g. It also gave a tissue uptake at 4 h (Fat uptake) of 1 ± 0.13 %ID/g, a tissue uptake at 24 h (Fat uptake) of 0.15 ± 0.06 %ID/g and a tissue uptake at 72 h (Fat uptake) of 0.08 ± 0.03 %ID/g. For the same compound, the tissue uptake at 120 h (Fat uptake) was 0.06 ± 0.03 %ID/g, the tissue uptake at 1 h (Heart uptake) was 4.41 ± 0.22 %ID/g and the tissue uptake at 4 h (Heart uptake) was 2.99 ± 0.36 %ID/g. The tissue uptake at 24 h (Heart uptake) was 0.36 ± 0.04 %ID/g, the tissue uptake at 72 h (Heart uptake) was 0.16 ± 0.01 %ID/g and the tissue uptake at 120 h (Heart uptake) was 0.1 ± 0.02 %ID/g. The tissue uptake at 1 h (Intestine uptake) was 1.26 ± 0.2 %ID/g, the tissue uptake at 4 h (Intestine uptake) was 1.03 ± 0.1 %ID/g and the tissue uptake at 24 h (Intestine uptake) was 0.49 ± 0.41 %ID/g. It also gave a tissue uptake at 72 h (Intestine uptake) of 0.15 ± 0.09 %ID/g, a tissue uptake at 120 h (Intestine uptake) of 0.05 ± 0.02 %ID/g and a tissue uptake at 1 h (Kidneys uptake) of 14.5 ± 3.33 %ID/g. The tissue uptake at 4 h (Kidneys uptake) was 12.4 ± 1.36 %ID/g, the tissue uptake at 24 h (Kidneys uptake) was 5.06 ± 0.91 %ID/g and the tissue uptake at 72 h (Kidneys uptake) was 2.28 ± 0.24 %ID/g. For the same compound, the tissue uptake at 120 h (Kidneys uptake) was 1.69 ± 0.58 %ID/g, the tissue uptake at 1 h (Lacrimal uptake) was 0.5 ± 0.05 %ID/g and the tissue uptake at 4 h (Lacrimal uptake) was 0.32 ± 0.13 %ID/g. It also gave a tissue uptake at 24 h (Lacrimal uptake) of 0.05 ± 0.01 %ID/g, a tissue uptake at 72 h (Lacrimal uptake) of 0.01 ± 0.01 %ID/g and a tissue uptake at 120 h (Lacrimal uptake) of 0.01 ± 0.01 %ID/g. For the same compound, the tissue uptake at 1 h (Liver uptake) was 3.95 ± 0.83 %ID/g, the tissue uptake at 4 h (Liver uptake) was 2.16 ± 0.17 %ID/g and the tissue uptake at 24 h (Liver uptake) was 0.45 ± 0.04 %ID/g. It also gave a tissue uptake at 72 h (Liver uptake) of 0.26 ± 0.01 %ID/g, a tissue uptake at 120 h (Liver uptake) of 0.22 ± 0.08 %ID/g and a tissue uptake at 1 h (Lungs uptake) of 9.01 ± 0.91 %ID/g. It also gave a tissue uptake at 4 h (Lungs uptake) of 6.35 ± 0.78 %ID/g, a tissue uptake at 24 h (Lungs uptake) of 1.09 ± 0.33 %ID/g and a tissue uptake at 72 h (Lungs uptake) of 0.29 ± 0.05 %ID/g. The tissue uptake at 120 h (Lungs uptake) was 0.15 ± 0.05 %ID/g, the tissue uptake at 1 h (Muscle uptake) was 1.42 ± 0.11 %ID/g and the tissue uptake at 4 h (Muscle uptake) was 1 ± 0.1 %ID/g. The tissue uptake at 24 h (Muscle uptake) was 0.11 ± 0.01 %ID/g, the tissue uptake at 72 h (Muscle uptake) was 0.04 ± 0.01 %ID/g and the tissue uptake at 120 h (Muscle uptake) was 0.05 ± 0.05 %ID/g. For the same compound, the tissue uptake at 1 h (Pancreas uptake) was 1.7 ± 0.17 %ID/g, the tissue uptake at 4 h (Pancreas uptake) was 1.21 ± 0.14 %ID/g and the tissue uptake at 24 h (Pancreas uptake) was 0.17 ± 0.03 %ID/g. For the same compound, the tissue uptake at 72 h (Pancreas uptake) was 0.07 ± 0.01 %ID/g, the tissue uptake at 120 h (Pancreas uptake) was 0.04 ± 0.01 %ID/g and the tissue uptake at 1 h (Salivary uptake) was 2.7 ± 0.29 %ID/g. The tissue uptake at 4 h (Salivary uptake) was 2.01 ± 0.17 %ID/g, the tissue uptake at 24 h (Salivary uptake) was 0.42 ± 0.07 %ID/g and the tissue uptake at 72 h (Salivary uptake) was 0.2 ± 0.03 %ID/g. For the same compound, the tissue uptake at 120 h (Salivary uptake) was 0.14 ± 0.02 %ID/g, the tissue uptake at 1 h (Seminal uptake) was 1.14 ± 0.17 %ID/g and the tissue uptake at 4 h (Seminal uptake) was 0.92 ± 0.2 %ID/g. It also gave a tissue uptake at 24 h (Seminal uptake) of 0.11 ± 0.03 %ID/g, a tissue uptake at 72 h (Seminal uptake) of 0.06 ± 0.01 %ID/g and a tissue uptake at 120 h (Seminal uptake) of 0.04 ± 0.01 %ID/g. The tissue uptake at 1 h (Spleen uptake) was 2.54 ± 0.6 %ID/g, the tissue uptake at 4 h (Spleen uptake) was 2.1 ± 0.39 %ID/g and the tissue uptake at 24 h (Spleen uptake) was 0.6 ± 0.05 %ID/g. It also gave a tissue uptake at 72 h (Spleen uptake) of 0.62 ± 0.14 %ID/g, a tissue uptake at 120 h (Spleen uptake) of 0.92 ± 0.3 %ID/g and a tissue uptake at 1 h (Stomach uptake) of 0.74 ± 0.14 %ID/g. The tissue uptake at 4 h (Stomach uptake) was 0.81 ± 0.04 %ID/g, the tissue uptake at 24 h (Stomach uptake) was 0.89 ± 0.84 %ID/g and the tissue uptake at 72 h (Stomach uptake) was 0.23 ± 0.16 %ID/g. The tissue uptake at 120 h (Stomach uptake) was 0.03 ± 0.01 %ID/g, the tissue uptake at 1 h (Tail uptake) was 3.57 ± 0.35 %ID/g and the tissue uptake at 4 h (Tail uptake) was 2.72 ± 0.61 %ID/g. For the same compound, the tissue uptake at 24 h (Tail uptake) was 0.4 ± 0.17 %ID/g, the tissue uptake at 72 h (Tail uptake) was 0.15 ± 0.03 %ID/g and the tissue uptake at 120 h (Tail uptake) was 0.19 ± 0.13 %ID/g. The tissue uptake at 1 h (Testes uptake) was 2.25 ± 0.3 %ID/g, the tissue uptake at 4 h (Testes uptake) was 2.68 ± 0.16 %ID/g and the tissue uptake at 24 h (Testes uptake) was 0.73 ± 0.32 %ID/g. It also gave a tissue uptake at 72 h (Testes uptake) of 0.34 ± 0.03 %ID/g, a tissue uptake at 120 h (Testes uptake) of 0.26 ± 0.04 %ID/g and a tissue uptake at 1 h (Thyroid uptake) of 3.79 ± 0.23 %ID/g. It also gave a tissue uptake at 4 h (Thyroid uptake) of 2.69 ± 0.26 %ID/g, a tissue uptake at 24 h (Thyroid uptake) of 0.55 ± 0.07 %ID/g and a tissue uptake at 72 h (Thyroid uptake) of 0.31 ± 0.04 %ID/g. For the same compound, the tissue uptake at 120 h (Thyroid uptake) was 0.19 ± 0.01 %ID/g, the tissue uptake at 1 h (Tumor uptake) was 15.6 ± 2.98 %ID/g and the tissue uptake at 4 h (Tumor uptake) was 46.5 ± 28.4 %ID/g. The tissue uptake at 24 h (Tumor uptake) was 54.3 ± 10.6 %ID/g, the tissue uptake at 72 h (Tumor uptake) was 66.3 ± 18.7 %ID/g and the tissue uptake at 120 h (Tumor uptake) was 74 ± 35.5 %ID/g.
